Here are results for one substance from patent publication US20150259384A1.

For assay [1], the target named is Human Rb construct (residues 53-787, delta245-267, delta582-642, S780A), phosphorylated with recombinant Cdk (human) (UniProt P06400). In words: isothermal titration calorimetry; E2F (~1 mM) titrated into ~50 uM phosphorylated Rb. (ITC needs no label: the signal is the heat of the interaction.)
The target in assay [2] is Human Rb construct (residues 53-787, delta245-267, delta582-642, S780A), un-phosphorylated (human) (UniProt P06400). Description: isothermal titration calorimetry; E2F (~1 mM) titrated into ~50 uM un-phosphorylated Rb.
The target of assay [3] is Phosphorylated human Rb construct (residues 53-787, delta245-267, delta582-642, S780A) saturated with the … peptide (human) (UniProt P06400). Description: isothermal titration calorimetry; E2F (~1 mM) titrated into ~50 uM phosphorylated Rb first saturated with the … peptide.

By Kd is commonly meant the concentration at which binding is half-saturated.

Phosphorylated human Rb construct (residues 53-787, delta245-267, delta582-642, S780A) saturated with the … peptide (human), sequence (P06400 other isoform, or with tags, fused parts or gaps S780A S780A limits assumed): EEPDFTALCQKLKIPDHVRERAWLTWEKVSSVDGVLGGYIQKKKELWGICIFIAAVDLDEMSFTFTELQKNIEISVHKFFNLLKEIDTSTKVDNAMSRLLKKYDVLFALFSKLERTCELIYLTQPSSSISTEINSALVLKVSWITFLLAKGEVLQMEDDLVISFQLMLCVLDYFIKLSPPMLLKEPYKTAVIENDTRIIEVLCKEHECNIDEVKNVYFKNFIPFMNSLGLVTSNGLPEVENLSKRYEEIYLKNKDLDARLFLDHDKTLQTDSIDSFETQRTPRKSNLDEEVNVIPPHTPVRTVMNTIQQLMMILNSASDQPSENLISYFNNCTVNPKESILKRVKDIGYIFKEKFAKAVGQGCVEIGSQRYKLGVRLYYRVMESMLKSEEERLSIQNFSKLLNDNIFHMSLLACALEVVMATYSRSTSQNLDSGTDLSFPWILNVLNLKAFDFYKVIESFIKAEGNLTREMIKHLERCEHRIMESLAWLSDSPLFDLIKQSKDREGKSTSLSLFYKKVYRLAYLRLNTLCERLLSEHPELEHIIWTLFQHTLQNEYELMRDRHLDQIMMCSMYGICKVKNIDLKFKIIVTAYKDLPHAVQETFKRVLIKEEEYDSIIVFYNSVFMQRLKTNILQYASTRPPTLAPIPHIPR
Human Rb construct (residues 53-787, delta245-267, delta582-642, S780A), phosphorylated with recombinant Cdk (human), sequence (P06400 other isoform, or with tags, fused parts or gaps S780A S780A limits assumed): as above
Human Rb construct (residues 53-787, delta245-267, delta582-642, S780A), un-phosphorylated (human), sequence (P06400 other isoform, or with tags, fused parts or gaps S780A S780A limits assumed): as above

Take “Human E2F1 transactivation domain (residues 380-727) (from UniProt Q01094 380-437)”: the values for the Kd in assay [1], in assay [2] and in assay [3] were 3 µM, 0.1 µM and 0.7 µM, respectively.
